Data: the Immune Epitope Database (IEDB)

What was measured:
HLA-B*15:01 = test: IEDB peptide-MHC binding, purified MHC/competitive/fluorescence; ≥ and ≤ were set here for values at or beyond the usual limits of such assays
HLA-A*02:01 [1] = test: as above
HLA-A*24:02 = test: as above
HLA-A*11:01 = test: as above; conditions: source organism: Variola virus
HLA-A*03:01 [2] = test: as above; conditions: source organism: Variola virus
HLA-B*08:01 = test: as above; conditions: source organism: Zaire ebolavirus
HLA-A*01:01 [3] = test: as above
HLA-B*07:02 = test: as above; conditions: source organism: Zaire ebolavirus
HLA-A*02:16 = test: IEDB peptide-MHC binding, purified MHC/direct/fluorescence; filed as Kd, often an IC50 or EC50 that approximates it; ≥ and ≤ were set here for values at or beyond the usual limits of such assays; conditions: source organism: Zaire ebolavirus
HLA-A*02:11 = test: as above; conditions: source organism: Zaire ebolavirus
HLA-A*24:03 = test: as above; conditions: source organism: Zaire ebolavirus
HLA-A*23:01 = test: as above; conditions: source organism: Zaire ebolavirus
HLA-A*02:03 = test: as above; conditions: source organism: Zaire ebolavirus
HLA-A*02:12 = test: as above; conditions: source organism: Zaire ebolavirus
HLA-A*02:19 = test: as above; conditions: source organism: Zaire ebolavirus
HLA-A*68:02 = test: as above; conditions: source organism: Zaire ebolavirus
HLA-A*01:01 [4] = test: as above; conditions: source organism: Zaire ebolavirus
HLA-A*03:01 [5] = test: as above; conditions: source organism: Zaire ebolavirus
HLA-B*27:03 = test: IEDB peptide-MHC binding, purified MHC/competitive/fluorescence; filed as Kd, often an IC50 or EC50 that approximates it; ≥ and ≤ were set here for values at or beyond the usual limits of such assays; conditions: source organism: Zaire ebolavirus
HLA-B*39:01 = test: as above; conditions: source organism: Zaire ebolavirus
HLA-B*51:01 = test: as above; conditions: source organism: Zaire ebolavirus
HLA-B*46:01 = test: as above; conditions: source organism: Zaire ebolavirus
HLA-B*57:01 = test: as above; conditions: source organism: Zaire ebolavirus
HLA-A*02:01 [6] = test: as above; conditions: source organism: Zaire ebolavirus
HLA-A*26:01 = test: as above; conditions: source organism: Zaire ebolavirus
HLA-A*69:01 = test: as above; conditions: source organism: Zaire ebolavirus
[7] = source organism: Zaire ebolavirus
[8] = source organism: Sudan ebolavirus
[9] = source organism: Vaccinia virus Copenhagen

For YQVNNLEEI, which IC50 (HLA-B*15:01; [7]) is on record?
The IC50 was 54.9 µM.

What about the IC50 (HLA-A*02:01 [1]; [7]) of the same sequence?
The IC50 was 25.6 µM.

What about the IC50 (HLA-A*24:02; [7]) of the same sequence?
The IC50 was 1.66 µM.

For KLLLWFNYL, which IC50 (HLA-A*11:01) is on record?
The IC50 was at least 140 µM.

And the IC50 (HLA-A*03:01 [2])?
The IC50 was at least 699 µM.

How did the IC50 (HLA-B*15:01; [7]) turn out when HKNKFMAIL was run?
Its IC50 is at least 443 µM.

And the IC50 (HLA-B*08:01)?
Its IC50 is 42.7 µM.

And the IC50 (HLA-A*02:01 [1]; [7])?
The IC50 was at least 782 µM.

What about the IC50 (HLA-A*24:02; [7]) of the same sequence?
The IC50 was 50.9 µM.

Which IC50 (HLA-A*01:01 [3]; [8]) does the source give for TENTSSYYA here?
Its IC50 is at least 142 µM.

How did the IC50 (HLA-B*15:01; [8]) turn out when YYATSYLEY was run?
The IC50 was at least 244 µM.

What about the IC50 (HLA-A*01:01 [3]; [8]) of the same sequence?
Its IC50 is at least 110 µM.

And the IC50 (HLA-A*24:02; [8])?
The IC50 was 0.676 µM.

How did the IC50 (HLA-B*15:01; [7]) turn out when QQYAESREL was run?
Its IC50 is 15.7 µM.

And the IC50 (HLA-A*02:01 [1]; [7])?
Its IC50 is 58.2 µM.

What about the IC50 (HLA-B*07:02) of the same sequence?
Its IC50 is at least 134 µM.

And the IC50 (HLA-A*24:02; [7])?
Its IC50 is at least 72.4 µM.

With THKLSLTKL as the sequence, how does the IC50 (HLA-A*11:01) read?
Its IC50 is 46.2 µM.

What about the IC50 (HLA-A*03:01 [2]) of the same sequence?
Its IC50 is at least 149 µM.

With RSDGYFLKI as the sequence, how does the IC50 (HLA-A*02:01 [1]; [9]) read?
Its IC50 is 4.94 µM.

What about the IC50 (HLA-A*01:01 [3]; [9]) of the same sequence?
Its IC50 is 3.4 µM.

And the IC50 (HLA-A*24:02; [9])?
The IC50 was 16.4 µM.

Which results are given for TTEANAGQF?
IC50 (HLA-A*01:01 [3]; [7]): ≥ 109 µM; IC50 (HLA-A*24:02; [7]): 22 µM; Kd (HLA-A*02:16): ≥ 20 µM; Kd (HLA-A*02:11): ≥ 20 µM; Kd (HLA-A*24:03): ≥ 20 µM; Kd (HLA-A*23:01): ≥ 20 µM; Kd (HLA-A*02:03): ≥ 20 µM; Kd (HLA-A*02:12): ≥ 20 µM; Kd (HLA-A*02:19): ≥ 20 µM; Kd (HLA-A*68:02): ≥ 20 µM; Kd (HLA-A*01:01 [4]): ≥ 20 µM; Kd (HLA-A*03:01 [5]): ≥ 20 µM; Kd (HLA-B*27:03): ≥ 20 µM; Kd (HLA-B*39:01): ≥ 20 µM; Kd (HLA-B*51:01): ≥ 20 µM; Kd (HLA-B*46:01): ≥ 20 µM; Kd (HLA-B*57:01): ≥ 20 µM; Kd (HLA-A*02:01 [6]): ≥ 20 µM; Kd (HLA-A*26:01): ≥ 20 µM; Kd (HLA-A*69:01): ≥ 20 µM
